From patent publication US20260000781A1, “FC CONJUGATES INCLUDING AN INHIBITOR OF CD73 AND USES THEREOF” (Cidara Therapeutics, Inc., priority 2022, published 2026)

Assays:
[1] = target: T1, human CD73 expressed on cells (human) (UniProt P21589); assay: cell-based or functional assay
T1 sequence (looked up): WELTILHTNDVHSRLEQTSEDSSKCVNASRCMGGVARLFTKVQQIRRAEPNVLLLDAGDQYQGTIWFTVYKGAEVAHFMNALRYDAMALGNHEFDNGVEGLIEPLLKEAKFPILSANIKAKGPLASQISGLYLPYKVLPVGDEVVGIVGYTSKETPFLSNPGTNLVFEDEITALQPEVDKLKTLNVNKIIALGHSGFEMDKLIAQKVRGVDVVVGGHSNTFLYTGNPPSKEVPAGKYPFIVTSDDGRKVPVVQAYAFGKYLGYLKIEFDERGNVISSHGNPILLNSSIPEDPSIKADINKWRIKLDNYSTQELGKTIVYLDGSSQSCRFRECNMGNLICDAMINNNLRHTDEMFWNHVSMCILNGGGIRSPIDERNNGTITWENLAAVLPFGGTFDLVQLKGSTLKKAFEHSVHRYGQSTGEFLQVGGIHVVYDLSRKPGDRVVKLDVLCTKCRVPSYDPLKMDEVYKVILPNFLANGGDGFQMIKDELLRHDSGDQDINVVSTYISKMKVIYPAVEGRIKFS

[2] = target: T2, recombinant human CD73 enzyme (human) (UniProt P21589); assay: cell-based or functional assay
T2 sequence (looked up): T1 sequence (looked up)

cell-free CD73 enzyme inhibition, maximal inhibition [2] | Substance | Cell internalization EC50 (nM), Fab-ZAP saporin assay, MDA-MB-231 [1]
– | hIgG1 isotype control (antibody) | > 100 nM
80% | Oleclumab (antibody) | –
